Test results from PMC5443838, “Peripherin-2 and Rom-1 have opposing effects on rod outer segment targeting of retinitis pigmentosa-linked peripherin-2 mutants” (Scientific Reports, 2017).
Where a chain is given by its changes, count along the chain named. Numbers in names are those of the source. Where “and” joins values, the source holds several entries; their conditions need not be identical. Equal values may be shown once.

B1: citrine- or cerulean-tagged per^WT (FRET construct, HEK293T) (natural protein, human, UniProt P23942 1-346, looked up)
chain: MALLKVKFDQKKRVKLAQGLWLMNWFSVLAGIIIFSLGLFLKIELRKRSDVMNNSESHFVPNSLIGMGVLSCVFNSLAGKICYDALDPAKYARWKPWLKPYLAICVLFNIILFLVALCCFLLRGSLENTLGQGLKNGMKYYRDTDTPGRCFMKKTIDMLQIEFKCCGNNGFRDWFEIQWISNRYLDFSSKEVKDRIKSNVDGRYLVDGVPFSCCNPSSPRPCIQYQITNNSAHYSYDHQTEELNLWVRGCRAALLSYYSSLMNSMGVVTLLIWLFEVTITIGLRYLQTSLDGVSNPEESESESQGWLLERSVPETWKAFLESVKKLGKGNQVEAEGADAGQAPEAG
notes: peripherin-2 (PRPH2), human, wild type; in the 'per^WT only' FRET pair the two copies differ in the fluorophore; also called per^WT only; source: HEK293T, transiently co-transfected, in living cells
B2: citrine- or cerulean-tagged per^C214S (FRET construct, HEK293T) (natural protein, human, UniProt P23942 1-346, looked up)
chain: B1 chain with C214S
notes: peripherin-2 (PRPH2), human, adRP-linked mutant C214S; in the 'per^C214S only' FRET pair the two copies differ in the fluorophore; also called per^C214S only; per^MT; source: HEK293T, transiently co-transfected, in living cells
B3: citrine- or cerulean-tagged per^P210L (FRET construct, HEK293T) (natural protein, human, UniProt P23942 1-346, looked up)
chain: B1 chain with P210L
notes: peripherin-2 (PRPH2), human, adRP-linked mutant P210L; in the 'per^P210L only' FRET pair the two copies differ in the fluorophore; also called per^P210L only; per^MT; source: HEK293T, transiently co-transfected, in living cells
B4: C-terminally myc- or flag-tagged per^WT (SDGC construct) (natural protein, human, UniProt P23942 1-346, looked up)
chain: B1 chain
notes: peripherin-2 (PRPH2), human, wild type; also called per^WT only; source: HEK293T, transiently transfected, in lysate (0.5% Triton X-100)
B5: C-terminally myc- or flag-tagged per^C214S (SDGC construct) (natural protein, human, UniProt P23942 1-346, looked up)
chain: B1 chain with C214S
notes: peripherin-2 (PRPH2), human, adRP-linked mutant C214S; also called per^C214S only; per^MT; source: HEK293T, transiently transfected, in lysate (0.5% Triton X-100)

Columns and labels:
[1] = biological target: T1, citrine- or cerulean-tagged Rom-1 (FRET construct, HEK293T) (human, UniProt Q03395 1-351); assay: FRET or BRET; 3 cube FRET in living co-transfected HEK293T cells; FRET imaging solution (140 mM NaCl, 5 mM KCl, 2 mM CaCl2, 1 mM MgCl2, 10 mM glucose, 10 mM HEPES, pH 7.4), RT; EAmax from the binding curve of apparent FRET efficiency against the cerulean/citrine molar ratio; conditions: partners not purified
T1 construct: Rom-1, homolog of peripherin-2; 'the single human peripherin-2 and Rom-1 transgenes'; source: HEK293T, transiently co-transfected, in living cells
T1 sequence (Q03395 whole entry): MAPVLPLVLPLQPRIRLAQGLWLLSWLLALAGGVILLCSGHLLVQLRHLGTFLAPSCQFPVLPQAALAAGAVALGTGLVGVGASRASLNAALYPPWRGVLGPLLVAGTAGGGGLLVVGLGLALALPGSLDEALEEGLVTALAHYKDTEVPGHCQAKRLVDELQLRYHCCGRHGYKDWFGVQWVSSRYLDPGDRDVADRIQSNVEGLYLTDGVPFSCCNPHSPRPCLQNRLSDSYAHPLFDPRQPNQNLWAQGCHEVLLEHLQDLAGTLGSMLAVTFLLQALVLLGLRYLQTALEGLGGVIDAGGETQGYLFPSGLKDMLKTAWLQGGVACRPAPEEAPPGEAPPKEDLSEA

[2] = biological target: the molecule itself; assay: as above
[3] = biological target: B1; assay: as above; conditions: partners not purified
[4] = biological target: the molecule itself; assay: sucrose density gradient centrifugation; lysate of transfected HEK293T cells (0.5% Triton X-100, 150 mM NaCl, 2 mM CaCl2) on a 5-20% sucrose gradient with 0.1% Triton X-100 and 10 mM N-ethylmaleimide, 46,700 rpm, 2 h, 4 °C; 11 fractions immunoblotted with myc- or flag-specific antibodies under non-reducing conditions; DNA standards for size

Binder	EAmax (maximal FRET efficiency) [1]	EAmax (maximal FRET efficiency) [2]	EAmax (maximal FRET efficiency) [3]	stoichiometry N [4]
B1	15.6%	34.2%	–	–
B2	6.32%	26.5%	8.58%	–
B3	6.58%	30.7%	9.44%	–
B4	–	–	–	4 and 8
B5	–	–	–	2
